This assay has as its target recombinant biotinylated SARS-CoV-2 spike RBD, wild type (SARS-CoV-2, UniProt P0DTC2, biotinylated). Briefly: BLI. As to conditions: both partners purified.

Consider 2 molecules from article PMC10107573 (Nature Communications, 2023).

B1: monoclonal antibody 1-1D (human IgG1) (antibody, V domains shown)
VH: EVQLVESGGGLIQPGGSLRLSCAASGFTVSSNYMSWVRQAPGKGLEWVSVIYSGGSTYFADSVKGRFTISRDNSKNTLYLQMNSLRAEDTAVYYCARGELGYSYGMDVWGQGTTVTVSS
VL: QSVLTQPPSVSAAPGQKVTISCSGSSSNIGDNYVSWYQLLPGTAPKLLIYDNNQRPSGIPDRFSGSKSGTSATLGITGLQTGDEADYYCGTWDSSLSTGVFGGGTRLTVL
With B1, the binding result was “binds”.

B2: monoclonal antibody 10-5B (human IgG1) (antibody, V domains shown)
VH: EVQLVESGGGLIQPGGSLRLSCAVSGFTVSRMSWVRQAPGKGLECVSVIYTGGNTDYADSVKGRFTISRDNSKNTLYLQMNSLRAEDTALYYCVRGSGGIHDAFDIWGQGTMVTVSS
VL: DIQMTQSPSSVSASVGDRVTITCRASQGISTWLAWYQQKPGKAPKVLINAASGLQSGVPSRFSGSGSGTDFTLTISSLQPEDFATYYCQQAHSFPPTFGPGTKLEIK
Consider B2, for which the binding result was “binds”.
